Twelve proteins from patent US20250051821 can be followed below.

The data set concerns the target T1, IFF05588.
T1 chain: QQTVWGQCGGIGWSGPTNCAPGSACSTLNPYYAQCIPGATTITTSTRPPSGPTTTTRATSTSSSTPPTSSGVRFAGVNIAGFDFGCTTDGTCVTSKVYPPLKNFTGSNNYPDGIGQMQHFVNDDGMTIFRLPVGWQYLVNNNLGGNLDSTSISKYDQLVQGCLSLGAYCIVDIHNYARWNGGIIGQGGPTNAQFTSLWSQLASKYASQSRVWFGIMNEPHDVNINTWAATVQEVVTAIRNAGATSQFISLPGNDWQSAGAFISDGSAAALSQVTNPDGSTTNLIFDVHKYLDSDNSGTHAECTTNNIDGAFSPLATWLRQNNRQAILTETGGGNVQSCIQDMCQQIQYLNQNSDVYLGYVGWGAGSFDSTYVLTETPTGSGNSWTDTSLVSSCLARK

B1: IFF21353 (protein)
chain: NLDKPVIQPNFPSLAPGLMSHLAPTHSTWDDWGAGWIPQDCKSMVQGAGFSPNDIIPFNIHYDDCGQTWTFCRHKNSPLSELQILDMFGRLPVRMRSFVRHLVFVPGNRSAGSNGDNILVVGDGDITLFAHEIGHSLDSHAFDPSYGVPFSTGNVWVSNYNLDSAVSDSYAQTSQQENFAQETVISLFDKVVPGGIGTIQPNWQAIFHQYATLQGYIGNVIIPGGTCTHRLTDSPPVPMSGSAKSRRGLGPKPEVSLSPEVKEIEAIPMESSITMTSFDEHGKPNGTYVIHLK
Consider B1, for which the Relative late peak area (centered, scaled, averaged over 5, 10 and 15 min) was -1.06; the Relative late peak area (centered, scaled, averaged over doses, 24 h; sample diluted 1-fold) was -1.31; the Relative late peak area (reverse phase chromatography, 24 h) turned out to be 0.25; the “modification of IFF05588 (reverse phase chromatography, 5 to 15 min)” value is “All samples containing proteins related to IFF05497 except seven (IFF21355, IFF21358, IFF21356, IFF21361, IFF21370, IFF21357 and IFF21353) are able to modify IFF05588 under these reaction conditions”.

B2: IFF21331 (protein)
chain: ALDKPIIDPEFPGGGLASLGQGLLDNLAPTQSTYADWEAGFIPQDCKTIAEGNSLSPLDIIPFNITYTDCSDPWIFCRHKDSPLSEVDMIDLFGRMPVGMRSFIRHIISIPGDKSAGSNGDNVQMNGDVDITVFIHETGHSLDSHGFDASYGVPFSTGQVWTDNYNLDSAVTDSYAQSSQQENFAQETVVALYDKVVPGGVGTIQPNWQAIQHQYETIQGYAGGIIIPGGTCTNRLPNSPAVPMSDSAKYRVNMAHKPDVSLSNYVTEIKSIPMEPIMKLTHYDAAGRPIGKSTIDLST
As for B2, the Relative late peak area (centered, scaled, averaged over 5, 10 and 15 min) was -0.86; the Relative late peak area (centered, scaled, averaged over doses, 24 h; sample diluted 1-fold) is -0.21.

B3: IFF21376 (protein)
chain: QTLDKPALTPDLDYLEQGAIDNLAPTQSTNDQWGSGWIPSDCKDIANNEGKNPDDFEIYNVHYDDCDDAWVFCRHKDTPTDLITTIDIFGRLPVAMRSWVRHVLTIPGDNYAYNSNGNIAFFGTTSGIMDVAIHETGHSLDLLGAYGDQLSSSQDWLDNYNQDSNVPDNYAQTNQIENVEQNTVVSVYDKVVPGGFGSAQPNWNNIFHQYATLQGKAGDQIIPGGSCDRHLVNSETVSTSDSAAAAMVDAVDKPVTSFKGNYTKILKTHAKFNTKESCYFGN
In the case of B3, the Relative late peak area (centered, scaled, averaged over 5, 10 and 15 min) was -0.99; the Relative late peak area (centered, scaled, averaged over doses, 24 h; sample diluted 1-fold) is -1.61.

B4: IFF21357 (protein)
chain: GNPDKPEVNPHIPYDRLESDLRNNLHPTQSTWDYWGAGWIPQGCKDLANTYHLNPADFTVFNVHYTDCSASWTFCRHKDAGASEIDMIDMLGRLPVRMRSYTRHLMATPGLNDGAAAWTWSTGDTVVESAPNLATLVHEVSHSLDWHALPQYQQPFSSSSIWQDNYNQDSATPTGYGRTNWMENFAETGMVGVYDKVVPGGIGNIESNWNSIFHQYATYQGYLGDKIIPGGSCANRFDDTAPVTMSNSAKFRVTSPKPETGIDFAGKNITQIIPSKEVEGLFIKG
As to B4, the Relative late peak area (centered, scaled, averaged over 5, 10 and 15 min) is -1.05; the Relative late peak area (centered, scaled, averaged over doses, 24 h; sample diluted 1-fold) is -1.49; the “modification of IFF05588 (reverse phase chromatography, 5 to 15 min)” value was “All samples containing proteins related to IFF05497 except seven (IFF21355, IFF21358, IFF21356, IFF21361, IFF21370, IFF21357 and IFF21353) are able to modify IFF05588 under these reaction conditions”.

B5: IFF21355 (protein)
chain: GNPDKPEVSPRIPYDRLESGLRNNLHPTQSTWDYWGAGWIPQGCKDLAKTYHLNPADFTIFNVHYTDCSASWTFCRHKDAGASEIDMIDIFGRLPVRMRSYIRHLMATPGLNDGAAAWTWSSGDCVVESAPNLATLVHEVSHSLDWHALPQYQQPFSSSSIWQDNYNQDSATPTGYGRTNWMENFAETGTVGVYDKVVPGGIGNIEPNWNAIFHQYATYQGYLGDKIIPGGSCANRFEDTPPVAMSNSVKFKITSPKPEIGIDFVGKNITQIIPSKEVEGLYIKG
With B5, the Relative late peak area (centered, scaled, averaged over 5, 10 and 15 min) is -1.02; the Relative late peak area (centered, scaled, averaged over doses, 24 h; sample diluted 1-fold) is -1.52; the “modification of IFF05588 (reverse phase chromatography, 5 to 15 min)” value is “All samples containing proteins related to IFF05497 except seven (IFF21355, IFF21358, IFF21356, IFF21361, IFF21370, IFF21357 and IFF21353) are able to modify IFF05588 under these reaction conditions”.

B6: IFF21371 (protein)
chain: QLDKPLVVPAMPALDAGLLKHLAAPAYTTSQWEWGWIPQWCKDEAVSEKLSPYDIEVFNIHYNDCKDVWIFCRHNAAQASQKDMIDIFGRMPVRTRQFVRHILAVPGTISAGSSGDNIALRGTGPNLISVLIHEAAHSMDSHAVDSLSKPFHNTAEWLAAYKADSAISDDYAQTSQSENFAQTVVIAVFDKVVPGGIGSVQPSWAAIKNQYTTAQKWLGDLIIPGGTCTARLENSPVASMGRASGNGARMRRRARGGKPDVSLSKDTKVIPAIAGKKIHITSFAQ
In the case of B6, the Relative late peak area (centered, scaled, averaged over 5, 10 and 15 min) is -0.95; the Relative late peak area (centered, scaled, averaged over doses, 24 h; sample diluted 1-fold) was -1.12.

B7: IFF21356 (protein)
chain: GNPDKPEVNPHIPYDRLESDLRNNLHPTQSTWDYWGAGWIPQGCKDLANTYHLNPADFTIFNVHYTDCSASWTFCRHKNAGASEIDMIDIFGRLPVHMRSYIRHLVATPGLNDGAAAWTWSSGDCVVESAPNLATLVHEVSHSLDWHALPQYQQPFSSSSIWQDNYNQDSATPTGYGRTNWMENFAETGMVGVYDKVVPGGIGNIEPNWNAIFHQYATYQGYLGDKIIPGGSCANRFDDTPPVAMSNSAKVKVNSPKPGTRIDFAGTNITQIIPSKEVEGLYIKG
B7: the Relative late peak area (centered, scaled, averaged over 5, 10 and 15 min) is -1.04; the Relative late peak area (centered, scaled, averaged over doses, 24 h; sample diluted 1-fold) was -1.52; the “modification of IFF05588 (reverse phase chromatography, 5 to 15 min)” value was “All samples containing proteins related to IFF05497 except seven (IFF21355, IFF21358, IFF21356, IFF21361, IFF21370, IFF21357 and IFF21353) are able to modify IFF05588 under these reaction conditions”.

B8: IFF21368 (protein)
chain: QLSKPVMNPPVPFSDLDPTLFKYLKSTPHNRDQWGWGWLPARCKAIADQQGLNAYDIDVYNVHYSDCNQAWVMCRHHLSPLSIDTMAENFGRIPVRMRNFVRVQFALPQKDSSFGGATFSDLGDILWYGDVSKTLRFWIHEAGHTIDRNINPGSNDDYSKSSAWLNEYNKDGFICDDYAKNNAAENFAQEVIVALFDKVVPGGLGSVSPNWNSIFHQYATVQSKLGDILIPGGTCNRKFADDTIVCMGPAANCNSKANAKFRLKADKTQDAAIVAASDNPPIEDLFEVEE
Consider B8, for which the Relative late peak area (centered, scaled, averaged over 5, 10 and 15 min) is -1; the Relative late peak area (centered, scaled, averaged over doses, 24 h; sample diluted 1-fold) is -1.44.

B9: IFF21362 (protein)
chain: GSPDKPEMNPAFDYGRFEAGLRDNLHPTHSTWDYWGPGWIPQSCKDIATSHGLSPNDFTIFNVHYDDCQEGWTFCRHKDAGASEIDMIDIFGRAPVHMRSFIRHLVATPGLHDGAAAFTFSNGDCVVESAPDLSVMLHEMSHSLDWHALPQYPSPFSSSNEWQSNYAQDSNTPTAYGRTNWLEDFAEAGKVGVFDKVVPGGFGSVAGNWGQVFHQYATYQGYLGDTILPGGTCDKRFPNSETVPMAGNSKRMAADLGEKPDNTIKADNMTLIQMRPEIEGQVSICEHQH
B9: the Relative late peak area (centered, scaled, averaged over 5, 10 and 15 min) is -0.99; the Relative late peak area (centered, scaled, averaged over doses, 24 h; sample diluted 1-fold) was -1.52; the Relative late peak area (reverse phase chromatography, 24 h) worked out at 0.23; the “modification of IFF05588 (reverse phase chromatography, 24 h)” value is “All samples containing proteins related to IFF05497 except one (IFF21362) are able to modify IFF05588 under these reaction conditions”.

B10: IFF21364 (protein)
chain: QLDKPALTDNLDYLLDGNVANLPSNGGPYWGKWEDGLIPADCKSIAESQGLNPTDFEVYDIFFDDCQDGWSFCRHKDSSDSFETLVDTFGRVPVRMRSWVRHILTIPGNNWAFNSNGNIAFSGTTSSNLDVALHETGHSLDLLGAYGDGALSSSQEWEDAYNADSNVPDNYAQSNQVENVAQNTVVGIYDKVVPGGFPGVQPNYANIQNQYTLLQDKAGEQIIPGGTCDRHLENSDTVSMSGSSSKRDVRAAKARAASHDSALKGKYSNIVKDFKPFNSQDFHH
Turning to B10, the Relative late peak area (centered, scaled, averaged over 5, 10 and 15 min) is -0.57; the Relative late peak area (centered, scaled, averaged over doses, 24 h; sample diluted 2-fold) is -0.28; the Relative late peak area (reverse phase chromatography, 24 h) stood at 0.49.

B11: IFF21369 (protein)
chain: QLPKPIMSPAVPFDHTDPILYQHLGSTPSTYDQWGWGWLPLRCKAVAEARGLNPYDVNVYNVHYEDCDQAWVMCRHHGAQVSLDQMIDNFGRLPVRLRNIVRHQFAVPGEGLGAYTYSDLGDIVFTGDIGHLLRFWVHEAGHAVDRNINPSQGDYSSSQAWINEYNKDGYICDEYAKNNMAENFAQEVIVALFDKVVPGGIGTIVPNWNDIFHQYATVQAVMGDMLIPGGFCNRHFADDTIVCMGPAAGCENSKRDYEGLNSTETYTAEAEEPTVCTLA
Consider B11, for which the Relative late peak area (centered, scaled, averaged over 5, 10 and 15 min) is -1; the Relative late peak area (centered, scaled, averaged over doses, 24 h; sample diluted 1-fold) is -1.42.

B12: IFF21377 (protein)
chain: KRLDKPALTPDLGYLLQGSVDNLHPTHSTWDKWGDGWIPEDCKSMAQNPNLNLNLNPSDFEVYNVHYDDCGDAWVLCRHKDSPVDLVTTVDIFGRLPVRMRDWVRHVMTVPGNDYAFNLNGNIVFSGRTSTNMDVAIHETGHSLDLLKAYGEVLSSSQTWIDNYNQDSNVPDNYAQSSQIENVAQNTVVSVFDKIVPGGFGSVQPNWHNIFHQYATLKSKAGDLILPGGQCDRRLKDSSPIPMDSNANEQGLLSWKPRTSFVNTYNNIVTNFEPFNTAEHCKESFS
In the case of B12, the Relative late peak area (centered, scaled, averaged over 5, 10 and 15 min) is -0.99; the Relative late peak area (centered, scaled, averaged over doses, 24 h; sample diluted 1-fold) is -1.45.
